Measurements published in patent publication US20210206813.

Tests used:
[1] = biological target: p130cas substrate domain fused to the omega subunit of RNA polymerase
[2] = biological target: MidT substrate domain fused to the omega subunit of RNA polymerase

B1: Src kinase (protein)
chain: MSKPQTQGLAKDAWEIPRESLRLEVKLGQGCFGEVWMGTWNGTTRVAIKTLKPGTMSPEAFLQEAQVMKKLRHEKLVQLYAVVSEEPIYIVTEYMSKGSLLDFLKGETGKYLRLPQLVDMAAQIASGMAYVERMNYVHRDLRAANILVGENLVCKVADFGLARLIEDNEYTARQGAKFPIKWTAPEAALYGRFTIKSDVWSFGILLTELTTKGRVPYPGMVNREVLDQVERGYRMPCPPECPESLHDLMCQCWRKEPEERPTFEYLQAFLEDYFTSTEPQYQPGENL
luminescence (LuxAB), bacterial two-hybrid system with induced Src [1]: luminescence increased most prominently for p130cas and MidT | luminescence (LuxAB), bacterial two-hybrid system with induced Src [2]: luminescence increased most prominently for p130cas and MidT

B2: protein tyrosine phosphatase 1B (PTP1B) (protein)
chain: MEMEKEFEQIDKSGSWAAIYQDIRHEASDFPCRVAKLPKNKNRNRYRDVSPFDHSRIKLHQEDNDYINASLIKMEEAQRSYILTQGPLPNTCGHFWEMVWEQKSRGVVMLNRVMEKGSLKCAQYWPQKEEKEMIFEDTNLKLTLISEDIKSYYTVRQLELENLTTQETREILHFHYTTWPDFGVPESPASFLNFLFKVRESGSLSPEHGPVVVHSSAGIGRSGTFCLADTCLLLMDKRKDPSSVDIKKVLLEMRKFRMGLIQTADQLRFSYLAVIEGAKFIMGDSSVQDQWKELSHEDLEPPPEHIPPPPRPPKRILEPHN
difference in luminescence between systems containing PTP1B or PTP1B (C215S) [2]: The difference in luminescence between systems containing PTP1B or PTP1B (C215S) was greatest for MidT
